Results: the nanobody polyreactivity screen of Harvey et al. (2022)

Assay: yeast display, Sf9 membrane polyspecificity reagent, FACS + sequencing; frameworks hold sequencing errors
Summary of the method: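 Nanobodies came from a synthetic yeast display library in Saccharomyces cerevisiae BJ5465, induced with galactose for 36–48 hours and stained for 1 hour at 4 °C with 10% biotinylated, detergent-solubilized Sf9 membrane reagent. Cells were enriched on streptavidin microbeads and then FACS-sorted, with low and high (top ~1%) gates set on anti-HA fluorescence for expression and streptavidin fluorescence for reagent binding. Each polyreactivity label reflects the gate a clone came from. Genes were amplified by colony PCR, sequenced by MiSeq 2 × 250 and filtered by CDR length.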

| Sequence | polyreactivity (PSR sort gate) |
| --- | --- |
| QVQLVESGGALVQAAGSLRLICAASVIISGCNGMGWYRQAPGKERELVASISDSGSSTYYADSVKGRFTISRDNAKNTVYLQMNSLKPEDTAVYYCATDLLASRYGYWGQGTQVTVSS | low polyreactivity |
| QVQLVESGGALVQAGGRLLLSCAASGRTFQGYVMGWYRQAPGKERELVAAISRGTSTYYADSVKGRFTISRDNAKNTVYLQMNSLKPEDTAGYYCAADGERRHYWGQGTQVTVSS | low polyreactivity |
| QVQLVESGGALVQAGGSIRLSCAASGFISRKNALGWYSQAPGKERELVATITKSGDTTYYADSVKGRFTISRDNAKNTVYLQMNSLKPEETAVYYCAAPLYYIGSWDYYVRYIYDYWGQGTQVTVSS | low polyreactivity |
| QVQLVESGGALVQAGGSLRISCAASGSIFPQNAMGWYRQAPEKERELVAAITTGGGRTYYADSVKGRFTISRDNVKNTVYLQMNSLKPEDTAVYYCYIRWPFRHYGSWGLGTQVTVSS | high polyreactivity |
| QVQLVESGGALVQAGGSLRLRCAASGTFFIYAMGWYRQAPGKEREFVATISTGGSTNYADSVKGRFTISRDNAKNTVYLQMNSLKPADTAVYYCAAEWLYPHDGGYRRPMDYWGQGTKVTVSS | low polyreactivity |
| QVQLVESGGALVQAGGSLRLSCAACGRTFWYNAMGWYRQAPGKERELVAAITRGGGRTYYADSVKGRFTISRDNAKNTVYLQMNSLKPEDTAVYYCAADSYYDMNYWGQGTQVTVSS | low polyreactivity |
| QVQLVESGGALVQAGGSLRLSCAASGFFIFTYAMGWYRQAPGKERELVAAISSRGGSTYYADSVKGRFTISRDNAKNTVYLQMNRLKPEDTAVYYCAAQAYGRYPYGYWGHGTQVTVSS | high polyreactivity |
| QVQLVESGGALVQAGGSLRLSCAASGFILNKNVMGWYRQPPRKERELVAAITGSGGRTYYADSVKGRFTISRDNAKNTVYLQMNCLKPEDTAVFYCNALPGTQYNYWGQGTQVTVSS | high polyreactivity |
| QVQLVESGGALVQAGGSLRLSCAASGFIVDAYAMGWYRQAPGKERELVAALTRGNTYYADSVKGRFTISRDNAKNTVYLQMTSLKPEDTGVSCCAARSWQSYRSQVTHSSTLDYWGQGTQVTVSS | low polyreactivity |
| QVQLVESGGALVQAGGSLRLSCAASGFTFYKNAMGWYRQAPGKERELVAAISRSAGSTYYADSVKGRFTISRDNAKNTVYFQMNSLKPEDTAVYYCNAVSDVKRYDYWGQGTQVTVSS | high polyreactivity |
| QVQLVESGGALVQAGGSLRLSCAASGIIFGGYALGWYRQEPGKERELVAAISCGGSTNYADSVKGRFTISRDNAKNTVYLQMNSLKPEDTSVYYCAADSASSYSYNYWGQGSQVTVSS | low polyreactivity |
| QVQLVESGGALVQAGGSLRLSCAASGITFEVYAMGLYRQAPGKAREFVAAITGSGSRTYYADSVKGRFTISRDNAKNTVYLQMNSLKPEDTAVYYCAVKGFSTRSYREFDYWAQGTQVTVSS | low polyreactivity |
| QVQLVESGGALVQAGGSLRLSCAASGLTFRDNAIGWYRKAPGKERELVDAISTNGGSTYYADSVKGRFTISRDNAKNTVYLQMYSLKPEVTAVYYCAADYDYQYRYYYWGQGTQVTVTS | low polyreactivity |
| QVQLVESGGALVQAGGSLRLSCAASGPIFGVYAMGWYRQAPGKERELVAAITYTGASTYYADSVKGRFTISRDNAKNTVYLQMNSLKPEDTAVYYCAGRLWRRSRFDYWGQGTQVTVSS | high polyreactivity |
| QVQLVESGGALVQAGGSLRLSCAASGRTFVSYVMGWYRQAPGKEREMVAAISGNGGRTYYADSVKGRFTISRDYAKKTVYLQMNSLKPEDTAVFYCAAELFVSYFDVLMYYWGQGTQVTVSS | high polyreactivity |
| QVQLVESGGALVQAGGSLRLSCAASGRTFWRNTMGWYRQAPGKEREFVAAITFSGVRTYYADSVKGRFTISRDNAKNTVYLQMNSLKPQDTAVYYCAKSRQYIGGFDYWGQGTQVTVSS | high polyreactivity |
| QVQLVESGGALVQAGGSLRLSCAASGRTINYYAMGWYRQAPGKERELVAAITWSGSSTYYADSVKGRFTISRDNAKYTVYLQMNSLKPEDTAVYYCNKASYTGYRSKRFYYWGQGTQVTVSS | high polyreactivity |
| QVQLVESGGALVQAGGSLRLSCAASGRTLESNAMGWYRQTPGKERELVAAISTIGGTYYADSVKGRFTLSRDNAKNTVYLQMNSLKPEDTAVYYCAKVWYDHSYIPIYDSWGQGTQVTVSS | low polyreactivity |
| QVQLVESGGALVQAGGSLRLSCAASGSIFRYNAMGWYRQAPGKEREFVAIISYSGVRTYYADSVKGRFTISRDNAKNTVYLQMNSLKPADTAVYYCAADFKQKGHRTRTTYWGQGTQVTVSS | high polyreactivity |
| QVQLVESGGALVQAGGSLRLSCAASGSIFVSYAKGWSRPAPGKERELLATITTSTGSTYADSVKGRFTISRDNAKNTVYLQMNSLKPEDTAVYYCAARYQPWLKYDFDSWGQGTQVTVSS | low polyreactivity |
| QVQLVESGGALVQAGGSLRLSCAASGSILDPKAMGWYRQAPGKERELVASISRGDNTYYADSVKGRFTISRDNAKNTVYLQMNSLKPEDSAVYYCAADYSWVVWHDYWGQGTQVTVSS | low polyreactivity |
| QVQLVESGGALVQAGGSLRLSCAASGSTFAYYAMGWSRPAPGKERELVAAITRGGRTNYADSVKGRFTISRDNAKNTVYVQMNSLNREDTAVYYCAARSGRSWLTCSYDYWGQGTQVTVSS | high polyreactivity |

| Sequence | polyreactivity (PSR sort gate) |
| --- | --- |
| QVQLVESGGALVQAGGSLRLSCAASGSTFLNYAMRGYRQATGKARELVAGINSGGSTNYADSVKGRFTISRDNAKNTVYLQMNSLKPEDTAVYYCAGDRVGNEYDYWGQGTQVTVSS | low polyreactivity |
| QVQLVESGGALVQAGGSLRLSCAASGSTLAYNAMGWYRQAPGKERELVAGIRGSGGSTYYADSVKGRFTISRDNAKNTVYLQMNSLKPEDTAVYYCNADSSVGHPPDGEYWGQGTQVTVSS | low polyreactivity |
| QVQLVESGGALVQAGGSLRLSCAASGYIFPGNAMGWYRQAPGKEREVVAGITSSGTSTYYADSVKGRFTISRDNAKNTVYLQMNSLKQEDTAVYYCAADALWGTGSGFDYWGQGTQVTVSS | low polyreactivity |
| QVQLVESGGALVQAGGSLRLSCAASRFTFTRYVMGWYSQAPGKERELVAAISINGGRTYYADSVKGRFTISRDNAKNTVYLQMNSLKPEDTAVYDCAAERYYWYTEMGYWGQGTQVTVSS | high polyreactivity |
| QVQLVESGGALVQAGGSLRLSCSASGSTLPGYAMVWYRQAPGKERELVAGISTRGGNTYYADSVKGRFTISRDNAKNTVYGQLNSLNPEDTAVYYCATTSSWRYGYWGEGTQVTVSS | high polyreactivity |
| QVQLVESGGALVQAGGSLRLSSAASGITFSRYAMGWYRQAPGKERELVARISSSGGSTNYADSVKGRFTISRDNAKNTVYLQMNSLKPEDTAVYYCAGATRGKVARRVTFDYWGQGTQVTVSS | high polyreactivity |
| QVQLVESGGALVQAGGSLRLTCAASGRIYTRYAMGWNRKATGKERELVAVITRSGGSTYYADSVKGRFTISRDNGKNTVYLQMNSLNPEVTAVYDCAAKYYGEMYYWGQGTQVTVSS | low polyreactivity |
| QVQLVESGGALVQAGGSLRLTCAYSGSTSYNNAMGWYRHAPGKERELYASLYMSAGSTYYADSVKGRFKISRDNEKNTVYLQMNSLKPEDTAVYYCAAESVAILGLVDPKGYGYWGQGTQVTVSS | low polyreactivity |
| QVQLVESGGALVQEAGSLRLRCAASGSIFDYKGMRWSRPAPGKERELVAAITSSGGSTYYADSVKGRFSISRDNAKNTDYLQMNSLIPEVSAFYYCAVDILYFPASYATQPVDYWGQGTQVTVSS | low polyreactivity |
| QVQLVESGGCIVQAGGSLRLSCAASGLNLDGYAMGWYRQAPGKERELVAAITRSGGRTYYADSVKGRFTISRDNANNTVYLQMNSLKPEDTAVYYCAALGWSVRYRYDYWGQGTQVTVSS | high polyreactivity |
| QVQLVESGGCIVQAGGSLRLSCAASGNIFAYNGKVWYRQAPGKERELVAAIRGSGTRTYYAESVKGRFTISRDNAKNTVYLHMNSLKPEDTAVYYCSARYFGTARTNYGYWGQGTQVTVSS | high polyreactivity |
| QVQLVESGGCLFQAGGSLRLSCAASGNIFLYYAMGWYRQAPGKERELVADIDSSGASTYYADSVKGRFTISRDNAKNTGYLQMNSLIPEDTAVYDCDKDSNRYSYYSPYDSWGQGTQVTVSS | low polyreactivity |
| QVQLVESGGCLVPAGGSLRLSCAASGFIIDWYDMAWYRQAPGKERELVAAITRSAGRTYYADSVKGRFTISRDIAKITVYLQMNSLKPEDTAVYYCAARSSSAGGGDGYWGQGTQVTLSS | high polyreactivity |
| QVQLVESGGCLVPAGGSLRLSGAASGSTYHFYAMGWYRHAQGKERELVASITSRGGNTHYADSVKGRFRISRDNAKNTVYFQMNSLKPEVTAVYSCAASGGWYGTYDYWGQGTQVTVSS | low polyreactivity |
| QVQLVESGGCLVQAGCSLRLSCAASGSTLWWYDMGWYRQAPGKERELVAAINSGGSTNYADSVKGRFTISRDNAKNTVYLQMNSLKAEDTAVYYCNTDGEVTYDYWGQGTQVTVSS | low polyreactivity |
| QVQLVESGGCLVQAGGRLRLSCAASGRIFHDNGMGWYRQAPGKERELVAAISRGGSTYYADSVKGRFTISRDNAKNTVYLQMNSRKPEDTAVYYCNVDSFRYRHTGYCDTRYGYWGQGTQVTVSS | high polyreactivity |
| QVQLVESGGCLVQAGGRLRLSCAASGSTFGRNAMGWYRQAPGKERELVAAISTSDGRTYYADSVKGRFTISRDNAKNTVYLQMNSLKPEDTAVYYCAADGETLPPRILGESEGDYWGQGTQVTVSS | low polyreactivity |
| QVQLVESGGCLVQAGGSLRLICAASGFIFTPYAMGWYRQAPGKERELVAAIRNSDGSTYYADSVKRRFTISRDTAKHSVYLQMNSLKPEDTAVFYCAKRYRGEPGGTYGYWGQGTQVNVSS | high polyreactivity |
| QVQLVESGGCLVQAGGSLRLICAASGLIFTGNAMGWYRQAPGKERELVAAINYSGGSTYYADSVKWRFTISRDNAKNTVSLQLNSLKAEDTAVYYCAAGGKSRSYYWGQGTQVTVSS | high polyreactivity |
| QVQLVESGGCLVQAGGSLRLRCAASGFMFGSYAMGWYRQAPGKERELVAAISRRGSSTSYADSVKGRFTISRDNAKNTVYLQMNSLKPEDTAVYFCAPPYLKKWGYYFDGNYWGQGTQVTVSS | high polyreactivity |
| QVQLVESGGCLVQAGGSLRLSCAASGFIFSEYAMGWYRQAPGKERELVVAIDVGGGSTYYADSVKGRFTISRDNAKNTVYLQMNSLKPEDTAVYYCAATQYGYWVPYQGFDYWGLGTQVTVSS | low polyreactivity |
